Patent US20070031417A1 (UNIVERSITY OF MASSACHUSETTS, published 2007)

B1: RDE-4 (other)
chain: MDLTKLTFESVFGGSDVPMKPSRSEDNKTPRNRTDLEMFLKKTPLMVLEEAAKAVYQKTPTWGTVELPEGFEMTLILNEITVKGQATSKKAARQKAAVEYLRKVVEKGKHEIFFIPGTTKEEALSNIDQISDKAEELKRSTSDAVQDNDNDDSIPTSAEFPPGISPTENWVGKLQEKSQKSKLQAPIYEDSKNERTERFLVICTMCNQKTRGIRSKKKDAKNLAAWLMWKALEDGIESLESYDMVDVIENLEEAEHLLEIQDQASKIKDKHSALIDILSDKKRFSDYSMDFNVLSVSTMGIHQVLLEISFRRLVSPDPDDLEMGAEHTQTEEIMKATAEKEKLRKKNMPDSGPLVFAGHGSSAEEAKQCACKSAIIHFNTYDFTD
notes: Endogenous protein from C. elegans extract; also called T20G5.11
B2: DRH-2 (enzyme)
chain: MIVNLCNEHRDPLDDEYPPEQFFLSTFTIIFFDECHNTVKNSPYSNVMREYHYLKNMGNMPEGHSFPQIIGLTASLGTGDKKNCMQVRSYIAGLCANMDVKELSIVKDNLEELLDHNPFVTDQVSFCERSNDGPIEMFTKRLKQMMQEVEDLIRTTLKNEPTVKYEIPPTDKEHNRYENWISNQRNCVSLAGSRNKTLIIEVLDVLKDCFYALSYNINFNPEVALKKYLEKELGPERIRNFTDNMNLIWDNCHRELVGIGSAENPMIARTVQFILDQNEQTSDFRAIIFVRTKKEADFLNYVLNDRLHELGIKSDWMSGQKKSTASSADISASKQKQMEKLKMFADGENQILVSTSVAEEGLDIPECSLVIKYNYATNETAHVQRRGRARARNSKCVLITNSIALHVQESNNLAKENLMTETISLIQNSPGEFRQCVDEESNKVWPRIQREDTDKAQRIKEQINRNIVYKIVCMKCDTVLCTNKDIRSKNTQYIVCNPGFWSLVRRIPLPLEQRASNKFNSTGSIECLGERCGSKLGQLIDVNTVNLPCLKVKSILLLIESTNERILVKQWKNILDEHFTPTTLKQRDVQTMKDADYGRAPIEFEHHTANGEVINVIRQA
notes: Endogenous protein from C. elegans extract; also called C01B10.1; Dicer-Related Helicase

Experiments:
Assay in all cases: found in two independent RDE-4 purifications, absent from controls, MudPIT (P = present)
[1] = target: T1, EFT-2, EF-Tu family GTP binding protein (Caenorhabditis elegans, UniProt P29691 2-852)
T1 construct: Endogenous protein from C. elegans extract; also called F25H5.4; translation elongation factor 2

TBB-4 = target: T2, TBB-4 (Caenorhabditis elegans, UniProt P41937 1-444)
T2 construct: Endogenous protein from C. elegans extract; also called B0272.1; tubulin, Beta
T2 sequence (P41937 whole entry): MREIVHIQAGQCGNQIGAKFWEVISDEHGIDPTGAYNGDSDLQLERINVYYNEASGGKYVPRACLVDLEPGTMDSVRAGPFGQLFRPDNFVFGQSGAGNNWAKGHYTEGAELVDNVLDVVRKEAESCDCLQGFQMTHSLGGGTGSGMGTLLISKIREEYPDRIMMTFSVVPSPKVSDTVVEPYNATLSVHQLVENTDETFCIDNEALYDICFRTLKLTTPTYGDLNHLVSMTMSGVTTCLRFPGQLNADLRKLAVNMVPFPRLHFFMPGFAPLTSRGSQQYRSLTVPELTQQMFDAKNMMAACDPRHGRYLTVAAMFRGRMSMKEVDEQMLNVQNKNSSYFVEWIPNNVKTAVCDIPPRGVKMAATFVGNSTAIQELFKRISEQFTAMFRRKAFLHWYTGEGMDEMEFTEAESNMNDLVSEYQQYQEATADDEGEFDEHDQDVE

RDE-4 = target: B1

binding result [1] | binding result (TBB-4) | binding result (RDE-4) | Binder
binds | binds |  | B1
 |  | binds | B2
